Measured values: PMC11724075, “Small-molecule-induced ERBB4 activation to treat heart failure” (Nature Communications, 2025)
Several values for one entry are separate records, joined by “and”; a condition that tells them apart may be missing. Identical values can stand only once.

Legend:
Erbb4-null mice = assay: Survival of Erbb4-null mice under AngII treatment; type: in vivo, mouse; set-up: key to Survival probability in AngII-treated Erbb4-null mice: 0: Survived until end of experiment; 1: Died before the end of the experiment
Text: Floxed Erbb4 mice (Erbb4^f/f; C57BL/6N; 129-Erbb4tm1Fej/Mmucd, MMRRC, #010439-UCD) were crossed with CAGGCre-ER^TM mice (Jackson Laboratory, 004682) containing the Tg(CAG-cre/Esr1*)5Amc transgene that expresses Cre recombinase under the control of a chicken beta actin promoter/enhancer coupled to the human cytomegalovirus immediate-early gene enhancer, resulting in expression of tamoxifen-inducible Cre-ERT in most cell types. To induce Cre recombinase-mediated deletion of Erbb4, eleven-week-old female and male iCAGGCre-ER^TM/Erbb4^f/f mice were intraperitoneally injected with tamoxifen (Merck, T5648; 10 mg/kg; in corn oil) daily for 5 consecutive days.
Statistical analysis was performed using GraphPad Prism version 10. Data are presented as the mean value of biological replicates (unless stated otherwise) ± SD. Data was checked for normality using the Shapiro–Wilk normality test. […]
Supplementary Figure 6. […] (a) Representative images of Masson’s trichrome staining of AngII-induced myocardial fibrosis following treatment with NA-1 and corresponding graphs showing the quantitation for total and perivascular fibrosis in male mice (n=5 male mice in Ctrl and AngII/Veh group, n=4 male mice in AngII/NA-1 group). […]

HCFs = assay: In vitro collagen expression: COL3A1 mRNA in HCFs stimulated with TGF-β1; type: cell-based, human
Method: HCFs were seeded at a density of 1.5 ×10^5 cells/well in doxycycline-free medium in 12-well plates (Greiner Bio-One, 665180) and incubated overnight. […] Compounds were pre-incubated for 10 min before addition of TGF-β1.
RNA was extracted using Nucleospin RNA XS (Macherey-Nagel, 740902.50) according to the manufacturer’s instructions. For cDNA synthesis, total RNA was added to a mixture containing buffer with random hexamers and reverse transcriptase enzyme (TaqMan reverse transcription reagents, Applied biosystems, N8080234) after which samples were incubated for 10 min at 25 °C, 30 min at 48 °C, and 5 min at 95 °C. RT-qPCR was performed on QuantStudio 3 Real-time PCR system (Applied Biosystems) using Taqman Universal PCR Master Mix (Applied Biosystems, 4304437) and Taqman primers according to the manufacturer’s instructions. Settings were as follows: […] followed by 10 min at 95 °C, 40 cycles (45 cycles for ERBB4) of denaturation at 95 °C for 15 s, and 1 min at 60 °C. All reactions were run in duplicate, and all data were normalized against housekeeping genes glyceraldehyde-3-phosphate dehydrogenase (GAPDH), beta-actin (ACTB), or phosphoglycerate kinase 1 (PGK1). Expression levels were calculated using the comparative cycle method and expressed as fold change (FC) to appropriate controls. The following TaqMan primers were used (Thermo Fisher Scientific): GAPDH (Hs02758991_g1, Mm99999915_g1 and Rn01775763_g1), PGK1 (Hs99999906_m1), ID2 (Hs04187239_m1), BMPR1B (Hs01010965_m1), CACNA2D4 (Hs00297782_m1), DUSP2 (Hs00358879_m1), NR4A1 (Hs00374226_m1), SGK1 (Hs00178612_m1), COL1A1 (Mm00801666_g1), COL3A1 (Hs00943809_m1 and Mm00802305_g1), ERBB4 (Hs00955525_m1 and Rn00572447_m1), ACTB (Mm02619580_g1) and ANP (Mm01255747_g1).

| Substance | Survival probability in AngII-treated Erbb4-null mice (Erbb4-null mice; 1000 ng/kg AngII, Erbb4-null mice, individual animals) | mortality in Erbb4-null mice (Erbb4-null mice; AngII dose of 1000 ng/kg/day) [%] | increase of COL3A1 mRNA levels in HCFs (HCFs; TGF-β1 10 ng/mL) [%] | COL3A1 mRNA expression (FC), HCF validation TGFβ (HCFs; TGFβ vs Vehicle, single replicates) |
| --- | --- | --- | --- | --- |
| angiotensin II (DRVYIHPF; Angiotensin-2; UniProt P01019 25-32, looked up) [AngII, inducer of hypertrophy in iAMs and of myocardial fibrosis in mice] | 1 and 0 | 80 |  |  |
| transforming growth factor β1 [TGF-β1, reference compound] |  |  | 36 | 1.323 and 1.4 and 1.364 |
